Data reported in PMC5553193 (2015).
Ends that are not written are not given here.

Molecular target: concanavalin A (Canavalia ensiformis, UniProt P02866)
Test: ITC

Chain of concanavalin A (P02866 whole entry, looked up): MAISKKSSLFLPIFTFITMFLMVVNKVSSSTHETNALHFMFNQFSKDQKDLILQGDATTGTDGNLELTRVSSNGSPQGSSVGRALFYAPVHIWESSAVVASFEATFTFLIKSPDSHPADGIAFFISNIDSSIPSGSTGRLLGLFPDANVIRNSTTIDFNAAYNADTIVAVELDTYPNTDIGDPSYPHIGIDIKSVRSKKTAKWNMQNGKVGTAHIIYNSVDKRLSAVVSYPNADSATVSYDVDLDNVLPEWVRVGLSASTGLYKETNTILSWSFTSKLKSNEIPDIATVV

B1: Man-WYDLF (L37) (peptide)
chain: Man-WYDLF
Kd: 4.6 µM

B2: Man-WYDLFDNINS (L30) (peptide)
chain: Man-WYDLFDNINS
Kd: 4.3 µM
